Data from US20190016789A1 (Janssen / Centocor, published 2019).

T1: Tencon25
T1 construct: Artificial FN3 domain (centyrin scaffold) with no target specificity; It was the immunogen; also called Tencon-T25
T1 chain: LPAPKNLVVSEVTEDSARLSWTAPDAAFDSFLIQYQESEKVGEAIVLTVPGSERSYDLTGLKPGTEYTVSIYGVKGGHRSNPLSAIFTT

T2: 83v2-ABD specific for human EGFR with an albumin binding domain
T2 chain: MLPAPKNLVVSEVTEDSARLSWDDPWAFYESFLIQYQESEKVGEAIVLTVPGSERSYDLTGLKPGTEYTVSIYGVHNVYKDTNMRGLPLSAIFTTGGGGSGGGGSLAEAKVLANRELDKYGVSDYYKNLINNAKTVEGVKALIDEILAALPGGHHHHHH

T3: FN3 domain A3 specific for human cMET
T3 construct: it carries a C-terminal His tag
T3 chain: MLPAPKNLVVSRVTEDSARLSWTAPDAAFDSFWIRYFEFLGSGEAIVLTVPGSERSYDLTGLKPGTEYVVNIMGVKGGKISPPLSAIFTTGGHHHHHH


Legend:
Tencon25 [1] = biological target: T1, Tencon25; test: ELISA, coated FN3 domain in dose-response, supernatant at 1 µg/ml, luminescence
Experimental: (§1) Three plates were coated with dose-response curves of, FN3 domain A3 specific for human cMET (SEQ ID NO: 31), 83v2-ABD specific for human EGFR with an albumin binding domain (SEQ ID NO: 32), tencon 25 that has no specificity (SEQ ID NO: 28), or negative control protein, all at 50 μL/well in 50 mM PBS. Plates were incubated over night at 4° C. Supernatants were dumped from plates and 200 μL/well Superblock was added to block plates for 1 hour at RT. […] Plates were incubated for 1 hour at RT. Plates were washed 3× with TBS-T. Secondary antibodies (HRP-goat anti-rabbit, rat or mouse) were prepared at 1:10,000 in Superblock and added to the plates. Plates were incubated for 1 hour at RT. Plates were washed 3× with TBS-T. 50 μL/well POD reagent (prepared according to Sigma-Aldrich manufacturer's instructions and incubated in the dark at RT for at least 30 minutes prior to use) was added to plates. After 3-5 minute incubation, protected from light, the M5 was used to read luminescence. The results were plotted in Prism (FIGS. 1A-C) using a Log/Log transformation, and then a four-parameter curve fit. […] It should be noted that there was no non-specific binding to negative control antibody. The mouse version of the antibody, AS7B91, appeared to have binding characteristics more similar to the original rabbit hybridoma antibody.

[2] = biological target: T2, 83v2-ABD specific for human EGFR with …; test: as above
Experimental: as §1

[3] = biological target: T3, FN3 domain A3 specific for human cMET; test: as above
Experimental: as §1

Tencon25 [4] = biological target: T1, Tencon25; test: flow cytometry, CAR-electroporated T cells stained with 50 nM APC labeled Tencon-25
Experimental: For AS7B16 and AS7B82, binding was assessed using flow cytometry. Briefly, Twenty-four hours post-electroporation, cells were centrifuged at 100×g for 10 minutes and washed two times in FACS stain buffer (BD Biosciences Catalog#554657). Cells were incubated with either APC labeled […] or AF647 labeled anti-EGFR 83v2 FN3 domains at a final concentration of 50 nM at 4° C. for 1 hour. The labeled cells were washed twice in FACS stain buffer and re-suspended in 200 uL of the same buffer. Data was collected using a BD LSRFortessa flow cytometer and analysis was performed using Flowjo software. All CARTs tested, AS7B16, AS7B82 and AS7B91 bind to both FN3 domains tested, Tencon-T25 and EGFR 83v2. Binding of CARTs occurs in the following manner: ASS7B91>AS7B82>AS7B16.

[5] = biological target: anti-BCMA CARTyrins expressed on the surface of primary T cells; test: cell-based or functional assay
Tencon25 [6] = biological target: T1, Tencon25; test: flow cytometry on CAR-electroporated primary T cells, labeled Tencon25

Row | Binder | binding result (Tencon25 [1]) | binding result [2] | binding result [3] | binding result (Tencon25 [4]) | binding result (Tencon25 [6]) | other results
1 | AS7B90 (antibody, rat IgG1) heavy: QSLEESGGRLVTPGTPLTLTCTVSGIDLSTSVMGWVRQAPGKGLESIGFIYTNVNTYYASWAKGRFTISRTSTTVDLKITSPTTGDTATYFCARAVYAGAMDLWGQGTLVTVSSAETTAPSVYPLAPGTALKSNSMVTLGCLVKGYFPEPVTVTWNSGALSSGVHTFPAVLQSGLYTLTSSVTVPSSTWPSQTVTCNVAHPASSTKVDKKIVPRNCGGDCKPCICTGSEVSSVFIFPPKPKDVLTITLTPKVTCVVVDISQDDPEVHFSWFVDDVEVHTAQTRPPEEQFNSTFRSVSELPILHQDWLNGRTFRCKVTSAAFPSPIEKTISKPEGRTQVPHVYTMSPTKEEMTQNEVSITCMVKGFYPPDIYVEWQMNGQPQENYKNTPPTMDTDGSYFLYSKLNVKKEKWQQGNTFTCSVLHEGLHNHHTEKSLSHSPGK light: DVVMTQTPASVSGPVGGTVTIKCQASERIYSNLAWYQQKPGQPPKLLIYKASTLASGVSSRFKGSGSGTEFTLTIRDLECADAATYSCQYTSYGSGYVGTFGGGTEVVVEGRADAAPTVSIFPPSSEQLASGGASVVCFINKFYPKDISVKWKIDGSERQNDVLNSVTDQDSKDSTYSMSSTLTLTKADYERHNLYTCEVVHKTSASPVVKSFNRNEC | binds | binds | binds | – | – | –
2 | AS7B16 scFv CAR, H-L orientation (scFv, Chimeric antigen receptor on mRNA-electroporated human pan T cells; also called AS7B16 H2L; AS7B16 H-L CAR ECD) QVTLKESGPGILQPSQTLSLTCSFSGFSLNTSGTGVGWIRQPSGKGLEWLAHIWWDDDKGYNPALKSRLTISKNTSSNLVFLKIASVDTADTATYYCVRIKGRMDYWGQGTSVTVSSGGGGSGGGGSGGGGSGGGGSNIMMTQSPSSLAVSAGEKVTMNCKSSQSVLFGSKQKNYLAWYQQKPGQSPKLLIYWASTRESGVPDRFTGSGSGTDFILTISNVQAEDLAVYYCHQYLSLFTFGSGTKLEIKTTTPAPRPPTPAPTIASQPLSLRPEACRPAAGGAVHTRGLDFACDIYIWAPLAGTCGVLLLSLVITLYCKRGRKKLLYIFKQPFMRPVQTTQEEDGCSCRFPEEEEGGCELRVKFSRSADAPAYKQGQNQLYNELNLGRREEYDVLDKRRGRDPEMGGKPRRKNPQEGLYNELQKDKMAEAYSEIGMKGERRRGKGHDGLYQGLSTATKDTYDALHMQALPPR | – | – | – | binds | – | –
3 | AS7B91 (antibody, mouse IgG2a, kappa, also called a-Centyrin) heavy: QSLEESGGRLVTPGTPLTLTCTVSGIDLSTSVMGWVRQAPGKGLESIGFIYTNVNTYYASWAKGRFTISRTSTTVDLKITSPTTGDTATYFCARAVYAGAMDLWGQGTLVTVSSAKTTAPSVYPLAPVCGDTTGSSVTLGCLVKGYFPEPVTLTWNSGSLSSGVHTFPAVLQSDLYTLSSSVTVTSSTWPSQSITCNVAHPASSTKVDKKIEPRGPTIKPCPPCKCPAPNLLGGPSVFIFPPKIKDVLMISLSPIVTCVVVDVSEDDPDVQISWFVNNVEVHTAQTQTHREDYNSTLRVVSALPIQHQDWMSGKEFKCKVNNKDLPAPIERTISKPKGSVRAPQVYVLPPPEEEMTKKQVTLTCMVTDFMPEDIYVEWTNNGKTELNYKNTEPVLDSDGSYFMYSKLRVEKKNWVERNSYSCSVVHEGLHNHHTTKSFSRTPGK light: DVVMTQTPASVSGPVGGTVTIKCQASERIYSNLAWYQQKPGQPPKLLIYKASTLASGVSSRFKGSGSGTEFTLTIRDLECADAATYSCQYTSYGSGYVGTFGGGTEVVVEGRADAAPTVSIFPPSSEQLTSGGASVVCFLNNFYPKDINVKWKIDGSERQNGVLNSWTDQDSKDSTYSMSSTLTLTKDEYERHNSYTCEATHKTSTSPIVKSFNRNEC | binds | binds | binds | – | – | increase in cell number compared to unstimulated cells [5]: 11 fold

Continued, in another order:

Row | binding result (Tencon25 [1]) | binding result [2] | binding result [3] | binding result (Tencon25 [4]) | binding result (Tencon25 [6]) | Binder | other results
4 | – | – | – | binds | – | AS7B16 scFv CAR, L-H orientation (scFv, Chimeric antigen receptor on mRNA-electroporated human pan T cells; also called AS7B16 L2H; AS7B16 L-H CAR ECD) NIMMTQSPSSLAVSAGEKVTMNCKSSQSVLFGSKQKNYLAWYQQKPGQSPKLLIYWASTRESGVPDRFTGSGSGTDFILTISNVQAEDLAVYYCHQYLSLFTFGSGTKLEIKGGGGSGGGGSGGGGSGGGGSQVTLKESGPGILQPSQTLSLTCSFSGFSLNTSGTGVGWIRQPSGKGLEWLAHIWWDDDKGYNPALKSRLTISKNTSSNLVFLKIASVDTADTATYYCVRIKGRMDYWGQGTSVTVSSTTTPAPRPPTPAPTIASQPLSLRPEACRPAAGGAVHTRGLDFACDIYIWAPLAGTCGVLLLSLVITLYCKRGRKKLLYIFKQPFMRPVQTTQEEDGCSCRFPEEEEGGCELRVKFSRSADAPAYKQGQNQLYNELNLGRREEYDVLDKRRGRDPEMGGKPRRKNPQEGLYNELQKDKMAEAYSEIGMKGERRRGKGHDGLYQGLSTATKDTYDALHMQALPPR | –
5 | – | – | – | – | binds | AS7B91 scFv L-H CAR (scFv, Chimeric antigen receptor on mRNA-electroporated human pan T cells; also called BAR-T variant 1; AS7B91 L-H CAR ECD) DVVMTQTPASVSGPVGGTVTIKCQASERIYSNLAWYQQKPGQPPKLLIYKASTLASGVSSRFKGSGSGTEFTLTIRDLECADAATYSCQYTSYGSGYVGTFGGGTEVVVEGGGGGSGGGGSGGGGSGGGGSLEESGGRLVTPGTPLTLTCTVSGIDLSTSVMGWVRQAPGKGLESIGFIYTNVNTYYASWAKGRFTISRTSTTVDLKITSPTTGDTATYFCARAVYAGAMDLWGQGTLVTVSSTTTPAPRPPTPAPTIASQPLSLRPEACRPAAGGAVHTRGLDFACDIYIWAPLAGTCGVLLLSLVITLYCKRGRKKLLYIFKQPFMRPVQTTQEEDGCSCRFPEEEEGGCELRVKFSRSADAPAYKQGQNQLYNELNLGRREEYDVLDKRRGRDPEMGGKPRRKNPQEGLYNELQKDKMAEAYSEIGMKGERRRGKGHDGLYQGLSTATKDTYDALHMQALPPR | –
6 | – | – | – | – | binds | AS7B91 scFv H-L CAR (scFv, Chimeric antigen receptor on mRNA-electroporated human pan T cells; also called BAR-T variant 2; AS7B91 H-L CAR ECD) QSLEESGGRLVTPGTPLTLTCTVSGIDLSTSVMGWVRQAPGKGLESIGFIYTNVNTYYASWAKGRFTISRTSTTVDLKITSPTTGDTATYFCARAVYAGAMDLWGQGTLVTVSSGGGGSGGGGSGGGGSGGGGSDVVMTQTPASVSGPVGGTVTIKCQASERIYSNLAWYQQKPGQPPKLLIYKASTLASGVSSRFKGSGSGTEFTLTIRDLECADAATYSCQYTSYGSGYVGTFGGGTEVVVEGTTTPAPRPPTPAPTIASQPLSLRPEACRPAAGGAVHTRGLDFACDIYIWAPLAGTCGVLLLSLVITLYCKRGRKKLLYIFKQPFMRPVQTTQEEDGCSCRFPEEEEGGCELRVKFSRSADAPAYKQGQNQLYNELNLGRREEYDVLDKRRGRDPEMGGKPRRKNPQEGLYNELQKDKMAEAYSEIGMKGERRRGKGHDGLYQGLSTATKDTYDALHMQALPPR | –
